Assay results reported in the Human Domainome abundance scans (Beltran et al. 2025).
± gives the uncertainty stated by the source.

Experiment: abundance fitness (aPCA) (normalised: wild type 0, dead -1); higher = more abundant; growth selection in yeast, the domain comes from the species named
Conditions: Homo sapiens

| Substance | abundance fitness |
| --- | --- |
| Lipoamide acyltransferase component of branched-chain alpha-keto acid dehydrogenase complex, mitochondrial G195W, P11182 | -1.25 ± 0.11 |
| Lipoamide acyltransferase component of branched-chain alpha-keto acid dehydrogenase complex, mitochondrial G195Y, P11182 | -0.977 ± 0.35 |
| Lipoamide acyltransferase component of branched-chain alpha-keto acid dehydrogenase complex, mitochondrial G198A, P11182 | -0.517 ± 0.044 |
| Lipoamide acyltransferase component of branched-chain alpha-keto acid dehydrogenase complex, mitochondrial G198C, P11182 | -0.666 ± 0.14 |
| Lipoamide acyltransferase component of branched-chain alpha-keto acid dehydrogenase complex, mitochondrial G198D, P11182 | -0.341 ± 0.11 |
| Lipoamide acyltransferase component of branched-chain alpha-keto acid dehydrogenase complex, mitochondrial G198E, P11182 | -0.506 ± 0.052 |
| Lipoamide acyltransferase component of branched-chain alpha-keto acid dehydrogenase complex, mitochondrial G198F, P11182 | -0.771 ± 0.25 |
| Lipoamide acyltransferase component of branched-chain alpha-keto acid dehydrogenase complex, mitochondrial G198H, P11182 | -0.267 ± 0.062 |
| Lipoamide acyltransferase component of branched-chain alpha-keto acid dehydrogenase complex, mitochondrial G198I, P11182 | -1.24 ± 0.23 |
| Lipoamide acyltransferase component of branched-chain alpha-keto acid dehydrogenase complex, mitochondrial G198K, P11182 | -0.406 ± 0.18 |
| Lipoamide acyltransferase component of branched-chain alpha-keto acid dehydrogenase complex, mitochondrial G198M, P11182 | -0.57 ± 0.1 |
| Lipoamide acyltransferase component of branched-chain alpha-keto acid dehydrogenase complex, mitochondrial G198P, P11182 | -0.776 ± 0.097 |
| Lipoamide acyltransferase component of branched-chain alpha-keto acid dehydrogenase complex, mitochondrial G198Q, P11182 | -0.301 ± 0.051 |
| Lipoamide acyltransferase component of branched-chain alpha-keto acid dehydrogenase complex, mitochondrial G198R, P11182 | -0.514 ± 0.044 |
| Lipoamide acyltransferase component of branched-chain alpha-keto acid dehydrogenase complex, mitochondrial G198S, P11182 | -0.412 ± 0.04 |
| Lipoamide acyltransferase component of branched-chain alpha-keto acid dehydrogenase complex, mitochondrial G198T, P11182 | -0.647 ± 0.078 |
| Lipoamide acyltransferase component of branched-chain alpha-keto acid dehydrogenase complex, mitochondrial G198V, P11182 | -1.04 ± 0.085 |
| Lipoamide acyltransferase component of branched-chain alpha-keto acid dehydrogenase complex, mitochondrial G198W, P11182 | -0.982 ± 0.16 |
| Lipoamide acyltransferase component of branched-chain alpha-keto acid dehydrogenase complex, mitochondrial G214A, P11182 | 0.014 ± 0.054 |
| Lipoamide acyltransferase component of branched-chain alpha-keto acid dehydrogenase complex, mitochondrial G214C, P11182 | -0.066 ± 0.057 |
| Lipoamide acyltransferase component of branched-chain alpha-keto acid dehydrogenase complex, mitochondrial G214D, P11182 | -0.041 ± 0.071 |
| Lipoamide acyltransferase component of branched-chain alpha-keto acid dehydrogenase complex, mitochondrial G214E, P11182 | 0.135 ± 0.12 |
| Lipoamide acyltransferase component of branched-chain alpha-keto acid dehydrogenase complex, mitochondrial G214H, P11182 | 0.016 ± 0.17 |
| Lipoamide acyltransferase component of branched-chain alpha-keto acid dehydrogenase complex, mitochondrial G214K, P11182 | 0.129 ± 0.076 |

| Substance | abundance fitness |
| --- | --- |
| Lipoamide acyltransferase component of branched-chain alpha-keto acid dehydrogenase complex, mitochondrial G214M, P11182 | -0.154 ± 0.23 |
| Lipoamide acyltransferase component of branched-chain alpha-keto acid dehydrogenase complex, mitochondrial G214N, P11182 | -0.41 ± 0.18 |
| Lipoamide acyltransferase component of branched-chain alpha-keto acid dehydrogenase complex, mitochondrial G214P, P11182 | -0.474 ± 0.2 |
| Lipoamide acyltransferase component of branched-chain alpha-keto acid dehydrogenase complex, mitochondrial G214Q, P11182 | 0.133 ± 0.074 |
| Lipoamide acyltransferase component of branched-chain alpha-keto acid dehydrogenase complex, mitochondrial G214R, P11182 | -0.002 ± 0.039 |
| Lipoamide acyltransferase component of branched-chain alpha-keto acid dehydrogenase complex, mitochondrial G214S, P11182 | -0.028 ± 0.078 |
| Lipoamide acyltransferase component of branched-chain alpha-keto acid dehydrogenase complex, mitochondrial G214T, P11182 | -0.034 ± 0.13 |
| Lipoamide acyltransferase component of branched-chain alpha-keto acid dehydrogenase complex, mitochondrial G214V, P11182 | -0.08 ± 0.065 |
| Lipoamide acyltransferase component of branched-chain alpha-keto acid dehydrogenase complex, mitochondrial G214W, P11182 | -0.315 ± 0.054 |
| Lipoamide acyltransferase component of branched-chain alpha-keto acid dehydrogenase complex, mitochondrial G214Y, P11182 | -0.189 ± 0.12 |
| Lipoamide acyltransferase component of branched-chain alpha-keto acid dehydrogenase complex, mitochondrial I186A, P11182 | -0.555 ± 0.044 |
| Lipoamide acyltransferase component of branched-chain alpha-keto acid dehydrogenase complex, mitochondrial I186C, P11182 | -0.239 ± 0.074 |
| Lipoamide acyltransferase component of branched-chain alpha-keto acid dehydrogenase complex, mitochondrial I186D, P11182 | -0.81 ± 0.077 |
| Lipoamide acyltransferase component of branched-chain alpha-keto acid dehydrogenase complex, mitochondrial I186E, P11182 | -0.543 ± 0.065 |
| Lipoamide acyltransferase component of branched-chain alpha-keto acid dehydrogenase complex, mitochondrial I186F, P11182 | -0.9 ± 0.18 |
| Lipoamide acyltransferase component of branched-chain alpha-keto acid dehydrogenase complex, mitochondrial I186G, P11182 | -0.748 ± 0.042 |
| Lipoamide acyltransferase component of branched-chain alpha-keto acid dehydrogenase complex, mitochondrial I186H, P11182 | -0.679 ± 0.091 |
| Lipoamide acyltransferase component of branched-chain alpha-keto acid dehydrogenase complex, mitochondrial I186K, P11182 | -0.533 ± 0.4 |
| Lipoamide acyltransferase component of branched-chain alpha-keto acid dehydrogenase complex, mitochondrial I186L, P11182 | -0.32 ± 0.057 |
| Lipoamide acyltransferase component of branched-chain alpha-keto acid dehydrogenase complex, mitochondrial I186M, P11182 | -0.419 ± 0.069 |
| Lipoamide acyltransferase component of branched-chain alpha-keto acid dehydrogenase complex, mitochondrial I186N, P11182 | -0.735 ± 0.097 |
| Lipoamide acyltransferase component of branched-chain alpha-keto acid dehydrogenase complex, mitochondrial I186P, P11182 | -0.918 ± 0.11 |
| Lipoamide acyltransferase component of branched-chain alpha-keto acid dehydrogenase complex, mitochondrial I186R, P11182 | -0.722 ± 0.049 |
| Lipoamide acyltransferase component of branched-chain alpha-keto acid dehydrogenase complex, mitochondrial I186S, P11182 | -0.594 ± 0.064 |
